Substrate in the data set: CCCCCCCCCCCCCCCC(=O)Oc1ccc([N+](=O)[O-])cc1
The experiment in a line: purified protein. In kind it is biochemical, Yarrowia lipolytica. The settings on record: 50 mmol PBS, pH 8.0, 40°C, substrate 0.2–1 mmol.

B1: YLLip2 (lipase2 from Yarrowia lipolytica) (Yarrowia lipolytica) (protein)
chain: VYTSTETSHIDQESYNFFEKYARLANIGYCVGPGTKIFKPFNCGLQCAHFPNVELIEEFHDPRLIFDVSGYLAVDHASKQIYLVIRGTHSLEDVITDIRIMQAPLTNFDLAANISSTATCDDCLVHNGFIQSYNNTYNQIGPKLDSVIEQYPDYQIAVTGHSLGGAAALLFGINLKVNGHDPLVVTLGQPIVGNAGFANWVDKLFFGQENPDVSKVSKDRKLYRITHRGDIVPQVPFWDGYQHCSGEVFIDWPLIHPPLSNVVMCQGQSNKQCSAGNTLLQQVNVIGNHLQYFVTEGVCGI
notes: mature YLLip2, own prepro replaced by XPR2pre secretion signal, N-terminal 6xHis tag kept (HHHHHH-VYTST...); secreted from Y. lipolytica JMY1212 (plasmid pYL-H6-mYLLip2); IMAC purified; approx. 38 kDa on SDS-PAGE
By kcat is commonly meant the number of substrate molecules converted per active site and unit of time at saturation. Take B1: the turnover number (kcat) stood at 157 ± 1 s⁻¹.

The values are drawn from PMC4147282, “Aromatic Amino Acid Mutagenesis at the Substrate Binding Pocket of Yarrowia lipolytica Lipase Lip2 Affects Its Activity and Thermostability” (The Scientific World Journal, 2014).
